# Residue numbers refer to the chain shown, from its start. Where “and” joins values, the source holds several entries; their conditions need not be identical. Equal values may be shown once.
# Key:
# Assay type in all cases: cell-based
# [1] = biological target: C3aR (Homo sapiens, UniProt Q16581); assay: Gi recruitment BRET assay (C3aR-eYFP / Gαi-Rluc8, HEK293T); details: for ΔBRET (ligand-vehicle): individual replicates
# Method: HEK293T cells were seeded on 6-well plates (NEST) and transfected with pcDNA3.1 plasmids encoding C3aR-eYFP, Gαi-Rluc8, Gβ1, and Gγ2 with a ratio of 5:1:1:1. After 48 h, cells were harvested and resuspended with in PBS. Cells were treated with test ligand with various concentrations and seeded on 96-well white bottom plates (SPL). After 3 min incubation at 37 °C, coelenterazine h (Nanolight) was added with a final concentration of 10 μM. Luminescence and fluorescence were measured using a Tristar 2 LB 942 multimode reader (Berthold).
# [2] = biological target: T1, C3aR M106^3.36A (Homo sapiens, UniProt Q16581, M106A); assay: GloSensor-based cAMP assay, C3aR mutant M106A; details: for cAMP response (% Forskolin): single replicates
# T1 construct: expressed in transfected cells; host or cells: HEK293T
# T1 sequence (Q16581 1-482 M106A): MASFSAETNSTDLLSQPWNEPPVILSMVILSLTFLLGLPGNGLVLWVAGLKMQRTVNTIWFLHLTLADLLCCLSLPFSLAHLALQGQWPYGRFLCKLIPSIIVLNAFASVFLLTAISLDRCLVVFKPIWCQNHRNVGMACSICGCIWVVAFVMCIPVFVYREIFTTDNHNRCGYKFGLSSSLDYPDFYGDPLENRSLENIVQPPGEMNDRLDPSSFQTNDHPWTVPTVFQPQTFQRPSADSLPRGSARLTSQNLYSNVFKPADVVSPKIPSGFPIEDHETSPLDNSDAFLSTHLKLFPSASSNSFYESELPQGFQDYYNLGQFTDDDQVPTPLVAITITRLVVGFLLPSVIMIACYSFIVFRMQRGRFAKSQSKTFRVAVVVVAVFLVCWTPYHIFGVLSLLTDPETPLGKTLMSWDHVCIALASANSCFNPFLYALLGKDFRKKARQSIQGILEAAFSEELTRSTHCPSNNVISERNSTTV
# Method: (§1) HEK293T cells were seeded on 6-well plates (NEST) and transfected with pGlosensor™-22F plasmids (Promega) and pcDNA3.1 plasmids encoding C3aR or its mutants an with N-terminal FLAG tag. After 48 h, cells were detached with Accutase solution (Sigma-Aldrich) and washed with PBS, and resuspended in assay buffer (CO2-independent medium with 0.5 mg mL^−1D-luciferin). 100,000–200,000 cells were seeded on 96-well white bottom plates (SPL) and incubated at 37 °C for 45 min followed by 45 min incubation at room temperature. After 90 min of incubation, basal luminescence signals were recorded. In total, 25 μl of test ligand with various concentrations and 1 μM Forskolin (Sigma-Aldrich) were treated to the cells and luminescence signals were measured by Tristar 2 LB 942 multimode reader (Berthold). […] Relative luminescence unit (%) was calculated with the signal of wells treated with vehicle as 0% and the signal of wells treated with 1 μM Forskolin as 100% (DiRaddo et al, [2014]). Nonlinear regression was performed using a three-parameter logistic equation.
# [3] = biological target: T2, C3aR Y393^6.51A (Homo sapiens, UniProt Q16581, Y393A); assay: GloSensor-based cAMP assay, C3aR mutant Y393A; details: for cAMP response (% Forskolin): Y3936.51A, single replicates
# T2 construct: expressed in transfected cells; host or cells: HEK293T
# T2 sequence (Q16581 1-482 Y393A): T1 sequence (Q16581 1-482 M106A) with A106M, Y393A
# Method: as §1
# [4] = biological target: T3, C3aR H418^7.36A (Homo sapiens, UniProt Q16581, H418A); assay: GloSensor-based cAMP assay, C3aR mutant H418A; details: for cAMP response (% Forskolin): single replicates
# T3 construct: expressed in transfected cells; host or cells: HEK293T
# T3 sequence (Q16581 1-482 H418A): T1 sequence (Q16581 1-482 M106A) with A106M, H418A
# Method: as §1
# [5] = Dunnett's multiple comparisons test, WT minus mutant
# Chain of C3aR (Q16581 whole entry): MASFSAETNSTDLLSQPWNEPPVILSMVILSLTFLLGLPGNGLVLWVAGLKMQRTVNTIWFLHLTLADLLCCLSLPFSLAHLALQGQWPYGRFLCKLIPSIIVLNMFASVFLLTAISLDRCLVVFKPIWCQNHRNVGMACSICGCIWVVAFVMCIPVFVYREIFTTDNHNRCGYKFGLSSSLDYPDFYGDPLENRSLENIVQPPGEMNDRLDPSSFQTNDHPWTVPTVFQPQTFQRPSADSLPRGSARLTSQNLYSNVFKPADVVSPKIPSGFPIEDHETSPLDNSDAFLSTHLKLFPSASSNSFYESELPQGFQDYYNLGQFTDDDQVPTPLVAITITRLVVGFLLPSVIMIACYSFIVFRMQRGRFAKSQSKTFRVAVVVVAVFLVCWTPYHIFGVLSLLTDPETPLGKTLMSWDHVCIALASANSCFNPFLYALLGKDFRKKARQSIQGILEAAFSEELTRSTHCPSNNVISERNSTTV
# Chain of C3aR (P63096 2-354 partner limits assumed): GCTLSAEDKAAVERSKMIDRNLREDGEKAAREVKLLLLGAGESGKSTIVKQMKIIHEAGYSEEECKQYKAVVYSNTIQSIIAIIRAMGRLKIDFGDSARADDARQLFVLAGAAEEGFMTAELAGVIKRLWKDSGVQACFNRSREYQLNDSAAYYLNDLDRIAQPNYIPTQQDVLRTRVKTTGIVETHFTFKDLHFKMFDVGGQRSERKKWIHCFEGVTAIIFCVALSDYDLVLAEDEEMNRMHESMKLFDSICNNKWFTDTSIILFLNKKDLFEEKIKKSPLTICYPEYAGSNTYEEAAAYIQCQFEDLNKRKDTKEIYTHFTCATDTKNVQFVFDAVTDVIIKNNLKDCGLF
# Chain of C3aR (P62873 2-340 partner limits assumed): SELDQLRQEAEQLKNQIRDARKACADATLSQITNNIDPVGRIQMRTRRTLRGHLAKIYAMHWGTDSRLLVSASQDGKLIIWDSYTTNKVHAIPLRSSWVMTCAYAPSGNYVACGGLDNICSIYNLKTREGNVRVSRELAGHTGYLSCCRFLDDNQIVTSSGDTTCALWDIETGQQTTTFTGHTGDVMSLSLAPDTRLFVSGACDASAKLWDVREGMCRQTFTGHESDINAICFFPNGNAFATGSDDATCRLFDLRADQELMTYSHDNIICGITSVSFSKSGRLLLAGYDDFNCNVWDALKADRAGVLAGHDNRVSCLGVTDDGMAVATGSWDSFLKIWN
# Chain of C3aR (P59768 2-68 partner limits assumed): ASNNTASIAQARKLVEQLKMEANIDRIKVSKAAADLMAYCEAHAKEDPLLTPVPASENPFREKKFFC
substance,measurement,setting,value
"C3a: anaphylatoxin C3a, natural peptide ligand of C3aR (a 77-amino acid peptide), Sigma-Aldrich",pEC50 Value,"[1]; Figure EV1A numerical data, curve fit",8.52
same,ΔBRET (ligand-vehicle),[1]; Log[ligand (M)] -7,0.032 and 0.030 and 0.024 and 0.026
same,ΔBRET (ligand-vehicle),[1]; Log[ligand (M)] -8,0.029 and 0.025 and 0.020 and 0.022
same,ΔBRET (ligand-vehicle),[1]; Log[ligand (M)] -9,0.010 and 0.009 and 0.006 and 0.007
same,ΔBRET (ligand-vehicle),[1]; Log[ligand (M)] -10,0.00235 and 0.00134 and 0.00248 and 0.003
same,ΔBRET (ligand-vehicle),[1]; Log[ligand (M)] -11,0.000317 and 0.00116 and 0.00278 and 0.00544
same,ΔBRET (ligand-vehicle),[1]; Log[ligand (M)] -12,0.000368 and 0.000727 and 0.00354 and 0.006
same,Span Value,"[1]; span of ΔBRET curve, Figure EV1A numerical data",0.027
same,"Mean Diff. of pIC50, WT vs. M106A",[2]; [5],0.034
same,cAMP response (% Forskolin),"[2]; M106A, Log[C3a (M)] -7",8.75 % Forskolin and 12.90 % Forskolin and 9.09 % Forskolin
same,cAMP response (% Forskolin),"[2]; M106A, Log[C3a (M)] -8",9.11 % Forskolin and 12.58 % Forskolin and 9.15 % Forskolin
same,cAMP response (% Forskolin),"[2]; M106A, Log[C3a (M)] -9",42.52 % Forskolin and 48.08 % Forskolin and 24.26 % Forskolin
same,cAMP response (% Forskolin),"[2]; M106A, Log[C3a (M)] -10",70.86 % Forskolin and 84.09 % Forskolin and 59.73 % Forskolin
same,cAMP response (% Forskolin),"[2]; M106A, Log[C3a (M)] -11",100.00 % Forskolin and 94.62 % Forskolin and 93.38 % Forskolin
same,cAMP response (% Forskolin),"[2]; M106A, Log[C3a (M)] -12",103.69 % Forskolin and 97.63 % Forskolin and 101.57 % Forskolin
same,ΔpIC50 ± SE of Diff.,[2]; M106^3.36A relative to WT C3aR,-0.03 ± 0.03
same,pIC50 (Replicate),"[2]; M106^3.36A, individual replicates",8.59 and 8.68 and 8.47 and 8.31
same,cAMP response (% Forskolin),"[2]; M1063.36A, Log[C3a (M)] -7",12.14 % Forskolin and 11.95 % Forskolin and 11.63 % Forskolin and 13.11 % Forskolin
same,cAMP response (% Forskolin),"[2]; M1063.36A, Log[C3a (M)] -8",15.30 % Forskolin and 16.36 % Forskolin and 17.61 % Forskolin and 30.65 % Forskolin
same,cAMP response (% Forskolin),"[2]; M1063.36A, Log[C3a (M)] -9",79.42 % Forskolin and 72.88 % Forskolin and 85.10 % Forskolin and 95.05 % Forskolin
same,cAMP response (% Forskolin),"[2]; M1063.36A, Log[C3a (M)] -10",93.61 % Forskolin and 101.94 % Forskolin and 98.48 % Forskolin and 102.99 % Forskolin
same,cAMP response (% Forskolin),"[2]; M1063.36A, Log[C3a (M)] -11",97.40 % Forskolin and 101.43 % Forskolin and 95.22 % Forskolin and 99.89 % Forskolin
same,cAMP response (% Forskolin),"[2]; M1063.36A, Log[C3a (M)] -12",100.17 % Forskolin and 94.23 % Forskolin and 92.07 % Forskolin and 95.27 % Forskolin
same,ΔpIC50 ± SE of Diff.,[3]; Y393^6.51A relative to WT C3aR,-1.34 ± 0.2
same,IC50,"[3]; Y393^6.51A, dose-response plot, read-out: IC50",35.3 nM
same,pIC50 ± SEM (Mean),"[3]; Y393^6.51A, mean of independent experiments",7.26
same,cAMP response (% Forskolin),[3]; Log[C3a (M)] -7,22.11 % Forskolin and 35.95 % Forskolin and 17.03 % Forskolin and 39.16 % Forskolin and 16.00 % Forskolin and 10.74 % Forskolin
same,cAMP response (% Forskolin),[3]; Log[C3a (M)] -8,77.53 % Forskolin and 92.37 % Forskolin and 48.78 % Forskolin and 85.94 % Forskolin and 83.42 % Forskolin and 59.04 % Forskolin
same,cAMP response (% Forskolin),[3]; Log[C3a (M)] -9,100.98 % Forskolin and 105.20 % Forskolin and 100.01 % Forskolin and 92.90 % Forskolin and 94.02 % Forskolin and 86.75 % Forskolin
same,cAMP response (% Forskolin),[3]; Log[C3a (M)] -10,91.84 % Forskolin and 102.66 % Forskolin and 96.87 % Forskolin and 100.10 % Forskolin and 89.56 % Forskolin and 88.42 % Forskolin
same,cAMP response (% Forskolin),[3]; Log[C3a (M)] -11,102.78 % Forskolin and 104.06 % Forskolin and 100.84 % Forskolin and 95.25 % Forskolin and 103.11 % Forskolin and 88.56 % Forskolin
same,cAMP response (% Forskolin),[3]; Log[C3a (M)] -12,99.54 % Forskolin and 99.47 % Forskolin and 94.11 % Forskolin and 90.18 % Forskolin and 94.48 % Forskolin and 86.37 % Forskolin
same,"Mean Diff. of pIC50, WT vs. H418A",[4]; [5],0.008
same,cAMP response (% Forskolin),"[4]; H418A, Log[C3a (M)] -7",25.95 % Forskolin and 18.34 % Forskolin and 14.90 % Forskolin and 10.15 % Forskolin
same,cAMP response (% Forskolin),"[4]; H418A, Log[C3a (M)] -8",26.38 % Forskolin and 19.33 % Forskolin and 14.37 % Forskolin and 9.75 % Forskolin
same,cAMP response (% Forskolin),"[4]; H418A, Log[C3a (M)] -9",37.00 % Forskolin and 39.46 % Forskolin and 38.86 % Forskolin and 18.94 % Forskolin
same,cAMP response (% Forskolin),"[4]; H418A, Log[C3a (M)] -10",73.80 % Forskolin and 84.21 % Forskolin and 84.87 % Forskolin and 53.38 % Forskolin
same,cAMP response (% Forskolin),"[4]; H418A, Log[C3a (M)] -11",92.78 % Forskolin and 94.37 % Forskolin and 96.55 % Forskolin and 91.56 % Forskolin
same,cAMP response (% Forskolin),"[4]; H418A, Log[C3a (M)] -12",97.08 % Forskolin and 98.99 % Forskolin and 94.98 % Forskolin and 97.61 % Forskolin
same,ΔpIC50 ± SE of Diff.,[4]; H418^7.36A relative to WT C3aR,-0.008 ± 0.011
same,IC50,"[4]; H418^7.36A, dose-response plot, read-out: IC50",3.34 nM
same,pIC50 (Replicate),"[4]; H418^7.36A, individual replicates",8.55 and 8.43 and 8.42 (2×) and 8.38 and 8.70
same,pIC50 ± SEM (Mean),"[4]; H418^7.36A, mean of independent experiments",8.49
same,cAMP response (% Forskolin),"[4]; H4187.36A, Log[C3a (M)] -7",18.06 % Forskolin and 18.98 % Forskolin and 15.70 % Forskolin and 12.14 % Forskolin and 13.13 % Forskolin and 12.07 % Forskolin and 13.03 % Forskolin
same,cAMP response (% Forskolin),"[4]; H4187.36A, Log[C3a (M)] -8",24.13 % Forskolin and 25.40 % Forskolin and 25.03 % Forskolin and 14.18 % Forskolin and 21.72 % Forskolin and 18.92 % Forskolin and 21.43 % Forskolin
same,cAMP response (% Forskolin),"[4]; H4187.36A, Log[C3a (M)] -9",81.20 % Forskolin and 92.26 % Forskolin and 92.38 % Forskolin and 94.46 % Forskolin and 94.81 % Forskolin and 73.56 % Forskolin and 81.94 % Forskolin
same,cAMP response (% Forskolin),"[4]; H4187.36A, Log[C3a (M)] -10",97.67 % Forskolin and 104.16 % Forskolin and 99.86 % Forskolin and 96.43 % Forskolin and 93.22 % Forskolin and 100.34 % Forskolin and 90.38 % Forskolin
same,cAMP response (% Forskolin),"[4]; H4187.36A, Log[C3a (M)] -11",100.38 % Forskolin and 103.33 % Forskolin and 102.03 % Forskolin and 95.26 % Forskolin and 97.84 % Forskolin and 98.73 % Forskolin and 97.27 % Forskolin
same,cAMP response (% Forskolin),"[4]; H4187.36A, Log[C3a (M)] -12",93.49 % Forskolin and 89.91 % Forskolin and 97.60 % Forskolin and 95.65 % Forskolin and 97.38 % Forskolin and 104.40 % Forskolin and 97.91 % Forskolin
